{"source": "the DeepSol protein solubility set"}
{"assay": "soluble on expression in E. coli; label from the status in PepcDB or PDB records"}
{"sequence": "MGSDKIHHHHHHMSGTLITSDVDVDAHGKQQAYLRVPHSVHRSAYGWIPVPIAVIRNGDGPTLVISAGVHGDEYEGQIAVATLIRTLDATDIRGRLILLPMVNVPAAEAGCRTSPIDAGNLNRLYPGDPKGMPSQMIAHFHEEVILPLADYAVDLHSGGSSLIYPATVMRGPSHSPQEEDGLATLVDAFDLPYTWVFQGGGGRDSTARTAMGAANRKGVINVMAELGGAGCVTPDVLHRTERGLRRILHAVGMLPGYVPDGAQGTRAVSVQGSVYAFETGVFEPLKSIGGDVVKGEAVAHIHHPETPGKAPDVVLSPHAGMVLAMRAMAQVRRGDALYQIAADAG", "soluble on expression in E. coli": "not soluble"}
{"sequence": "MGSDKIHHHHHHMSIIDLTKLEQKVATMWDSILTNSPFIHEVLDGKATKALYAIYMTETYHYTKHNAKNQALVGIMGKDLPGKYLSFCFHHAHEEAGHELMALSDIASIGFDREDVLSSKPLPATETLIAYLYWISATGNPVQRLGYSYWAENVYGYIDPVLKAIQSTLDLTPQSMKFFIAHSKIDAKHAEEVNEMLHEVCKTQEDVDSVVAVMENSLVLTARILDDVWKEYQLFQSGASDRYAFLRDNA", "soluble on expression in E. coli": "not soluble"}
{"sequence": "MGSDKIHHHHHHMSIKTSNTDFKTRIRQQIEDPIMRKAVANAQQRIGANRQKMVDELGHWEEWRDRAAQIRDHVLSNLDAYLYQLSEKVTQNGGHVYFARTKEDATRYILQVAQRKNARKVVKSKSMVTEEIGVNHVLQDAGIQVIETDLGEYILQLDQDPPSHVVVPAIHKDRHQIRRVLHERLGYEGPETPEAMTLFIRQKIREDFLSAEIGITGCNFAVAETGSVCLVTNEGNARMCTTLPKTHIAVMGMERIAPTFAEVDVLITMLARSAVGARLTGYNTWLTGPREAGHVDGPEEFHLVIVDNGRSEVLASEFRDVLRCIRCGACMNTCPAYRHIGGHGYGSIYPGPIGAVISPLLGGYKDFKDLPYACSLCTACDNVCPVRIPLSKLILRHRRVMAEKGITAKAEQRAIKMFAYANSHPGLWKVGMMAGAHAASWFINGGKTPLKFGAISDWMEARDLPEADGESFRSWFKKHQAQEKKNG", "soluble on expression in E. coli": "not soluble"}
{"sequence": "MGSDKIHHHHHHMSILGLFGCDNGRNIAIICKNNPEICADLHKDSWCLAEKTQLIRDRYTLKDTTHPTGKQLYLQLTYLEDYSRCIELAAGVQHIIHTSRTADRARAFRLSTENLTQLQEQTRERQDPFMSYYQWTRFGDTQALNRLLEHENAGEVTDPFLLAQIATYYSNRDAIKSQQLYLKVLSEIQYDDFDVNWLLGLASTFRHTQQFDKTYMLTKANLLLTQQKYSEDKMLALLSNNKTLAAKLDKYAQTLIDALKNGNYSTSSVRKWLEPAPQILPAETITTEPVPEK", "soluble on expression in E. coli": "not soluble"}
{"sequence": "MGSDKIHHHHHHMSIPQQTDALDQAPSTAGCRVPYRVFTDRQYYDREQENIFKGNCWSFVGLEAEVPQAGDFKSTFVGETPVILTRDSDGSLHVVVNRCAHRGALVCREMRGNRASLECVYHQWAYDLKGNLIGVPFRRGLKGQGGMPGDFDMSQHNLRQLRTESVGGLVFASFSETVESCRDFLGPIVVEQIERIMCKPITVLGDQRQRIRGNWKLYAENTRDPYHASLLHLFHNTFGLYRSTQTGKALMDANKRHSLLYSIAASNDDAADKQAYGDSRTFDTEFKLQDMSLLKGRQEFADNVTLVILAVYPNLVLQQIQNTLAVRQTVTYGPDEFELVWTHFGYQDDDAEMQAIRLKQANLIGPAGLISMEDGEAVEIVQNAIVGEASATSYIAMGGGRAEDADHLVTEGAIIGFWDNYREMVGFEVEPT", "soluble on expression in E. coli": "not soluble"}
{"sequence": "MGSDKIHHHHHHMSIVDKFGEKVGEIAENDPVKARKLLLAGYRLQEKRLALFPDRKLPMSGQYVAKIVMNNIIQALAKPENAAMVSIFVPGELLTAAGLTPYSVEALSCFIAGTKCEQAFLRQTEKEGFPETMCSYHRVFLGAALNGIVPKPKCMVYTNLACDGNMMTFPYLKERYEIPSFYIDVPYEKNYDSVMYVAKQLRELKSFLQDVTGREITEESVKKAVDKSKIASNNYYRQLHLRKGHDIASTLTNELYALFMCHLLAGTDESVRYTQLLRDDVRRAPAGDGFHVLWMHTMPFLQDAVKDVFNYSDTIHISASDFIADGFRSMESDDPYEALAEKMVYCIYNGSVNQRIDEAKELADTVGADGAVLFAHWGCKNTIGASSLIKRSLEREGLPTMVLDGDGCNPANASDGQISTRLQAFVEMLTEQERN", "soluble on expression in E. coli": "not soluble"}
{"sequence": "MGSDKIHHHHHHMSKGRHVCFLTGTLNAMAGAERMTAVIANALAESGHTVSILSLWDKDSCFPLHPAVGHEALFAERPSFKKAYLTTVAGIRRYCRERKVDVLVQVDTMLALLALPATVGLGVQHIAWEHCHFDEDLGRRARRYARRLAARYCKHVVVLTERDQLRWIEALQPRSQVVIIPNPLPFPFPEEPAPRTGKIVLAMGRLVNAKGFDVLIRAWQRVSAEVPDWKLVIHGEGEERPALSALIDELGLQDSVSLPGICRDATEAYREASIFCLSSRYEGFGLVLIEAMAFGLPIVSTNCEAGPRELLATGTVGLTVPVDAPTMLAASILDLIHQPDLALRFAHAERMFAKGYSLQQIGARWSDLTSARHGSMPQYS", "soluble on expression in E. coli": "not soluble"}
{"sequence": "MGSDKIHHHHHHMSKLNLVHLNGLRAVEAVGRLGSLQAAASELGVSIGAISQQVIKAEQQLQLQLFERTSRGMVPTDVAEPVLDRLSAGFRHLSGAVALALKSDDTVLTISVAPVFAARWLVHRIGAFSERFPTIRLRMEASDRLIDPSSSDVDLCIRVGRGDWPGVRAELLLEQKVFPVCTPAMAKRLQSPADLLELPIVEDGRAMFSWDVWLAAAGLPGRSVCTRHVFSEASLCLDAALAGQGVLLAWQTIASQQLQQGQLVAPFGPAVPTGLAHYFVSPEGARRNDKVDAFKRWLRDELHEDMTRLAKAIPFLGGPFLKGECG", "soluble on expression in E. coli": "not soluble"}
{"sequence": "MGSDKIHHHHHHMSLANRYEFVYLFDVSNGNPNGDPDAGNLPRLDPETNQGLVTDVCLKRKLRNYVALEKENEPGFAIYMQEKSVLNHQHKRAYEALSLEPEPKKLPKDQAKARELTAWMCKNFFDVRAFGAVMTTEVNAGQVRGPIQLTFATSIDPVVPLEVSITRMAVTNDKDLEKERTMGRKHIVPYGLYRAHGFVSAKLAERAGFGEEDLQLLWRGLINMFEHDRSAARGEMTARKLIAFKHECALGNAPAHRLFDSVRVSRADGAGDSPARGFTDYRVELDRAVLPAGVEVLELL", "soluble on expression in E. coli": "not soluble"}
{"sequence": "MGSDKIHHHHHHMSLKMKLIYVVESSVPYGANKCLIEIIDRLDKDKHEVMVVGADEGALSSWLRERNVSYVSLNHRLSIYPVLNSRKDYLLWLPRLFRRVALNVIAMVKFFKICKRFKPDIVHTNVGPCSLGYFVATYLGIKHVWHVREYQDLDFGMSFFPNRKAFLKRLKRSDAVICITNSIAAHFHLTDNENLAVINDGVISDEKEIDIIQKENYFLFAGRLEAAKGIEEAIESFFEFCETDSSGISFYVAGDGNFNYLKKLKEKVSKSNFSNRVRFLGFRDDIFALMRMAKALVVASRCEGFGLITAEAMYQGTLVIGRDTGGTSEILKDSKGIHYGFLFNSIDELTKLMHEVVDLSPDEYTKMARSAQRRTLDKYTINRNFREISDVYNTLM", "soluble on expression in E. coli": "not soluble"}
{"sequence": "MGSDKIHHHHHHMSNDKEIIKRAVERHDIDSSIFQGRYVNFTQGKYTDEFIYGRYQMFEEIDRILSSLPKGAKVLDLGCGTGHFSTYIKTLCYEVTGLDPSTKMLDYARQNFPEITFVEGYSNALPFEDNTFDLIISIEVLRYLDTKIVLESYEEIYRTLKPNGKMFITHVNTLATEGYYIFYHLKKLAHSFKGKEYHSAYFTSANKEERTLKKIGFKNISCIGRMFATVRTGYKFGKTIGKTYAKLLEKFNPKQRFEKSHFKNFTGHLIVIAEK", "soluble on expression in E. coli": "not soluble"}
{"sequence": "MGSDKIHHHHHHMSNFLLEAGRQTLMLELQEASRLPERLGDDFIRAAETIIHCEGKLIVSGIGKSGHIGKKLAATFASTGTPAFFVHPAEALHGDLGMLDSRDVMLFISYSGSAKELDLIVPRLEEKGIPLLAMTGKSTSPLALAAKAVLDIAVEREACPMHLAPTSSTVNTLMLGDALAMAVMQARGFNEEDFARSHPAGALGARLLNKVHHLMRRDEEVPRVNTEANVMDAMLELSRTGLGLVAVCDEANRVQGVFTDGDLRRWLVAGGTLNDGVTRAMTRNGVTLQADSRAVEAKERLMKHKISAAPVVDENGQLVGAINLQNFYQAGIL", "soluble on expression in E. coli": "not soluble"}
{"sequence": "MGSDKIHHHHHHMSNHNWTRRDFIKGVGATTAGITLSACNPSGDRSATGLTQEALTIKPVIKSSDLEKPDLIVGYVPVNDCAPFAIAWKKGFFRKYGLNVQLNREASWATSRDGLIFGRLDAAPVVSGAVTNARIGAEGARHAPLCAAMTIHRHGNAMTMNKAMWDFGLRPWYEYQEKYGDGALEAFGRDFRGYFEKQPPENKVWAVVLSSAIYEYFVRYVSAAAGVDPLKEFRVIIVPPPQMVTNVRIGAMQAYMVAEPWNTRAITGNEGIGFTFAQGKEVWLGHPDRLLGVMESFIDQYPKTYRSLVKAMIEACQYCSKPENRQEVAELITDRSFTGARPKNKNLPITKLTAPGIIGSYNYGGFDGKDRTIPAADTTIFYDIPDNLPKQPAEHSTFLWRSRSLWLMTQAARWGQIKEFPKNAEQLAEKGWRTDLYRQIAAEMGIQCPQDDYKVEPPEVFIDKKGFDPSDPVGYLNSFAIRANAPTRFFLS", "soluble on expression in E. coli": "not soluble"}
{"sequence": "MGSDKIHHHHHHMSNRIKNIHYGTQRQQLKNLTKKEYQALREMCFLAKNLYNVGTYNVRQHYFNQGEHLNYEANYHVCKENENYKLLNSNIAQQILKEVDSSFRSFFGLIKLAKEGKYDFRGIKSPKYLDKEGFFSIIIGQIRIKEDGILNVPMSPAFKKLYGKVSIKVPQNILEKKIKEIRIIPKHKARFFEIQYCYEIPKSEEVSNQKNALAIDLGLENLCTCVTNLGDSFIIDGKRLKSVNQWANKQNDKIEALKLKKNITAITRKQFKVWNKRNNQVKDYVNKTCFYIIDYCVKNNIGNLIVGYNAKLEKSDNMERKIYRNFIRIPFGEIKGKLEYLCKIKNINFIRQEESYTSKSDFFADDFLPDINVDNVKKYDFKGERITRGQYKSSVGIIINADVNASLNILKKSQVVNLSNLQNNPQILKQPQRVRIS", "soluble on expression in E. coli": "not soluble"}
{"sequence": "MGSDKIHHHHHHMSNRQEQPHFNDWFQARGITEVECLVTDLTGILKGKIMPAGKYLGGGRPRLPDSIFIQTVTGGYPDDDDIHFWNPAERDMELVPDPNAVFLVPWADDPTAQIIHDCHYLTGEPVELAPRHVLKRVLACYQARGWKPVVAPEVEFFLVKTNTDSDYPLEPPIGRNGRQESSRQSFSIDAVNEFDPLFEEMYDYCDAMSLDLDTLIHEEGAGQMEVNFQHGDPLHLADQVVMFKRALRETALRHGMYATFMAKPMANEPGSSMHLHQSLLDAQSGDNLFASDNGQSSRLFQHFIGGLQRYLPASMPLLAPNVNSYRRLMRTETSGSAPINVEWGTDNRTVGLRVPVSTPEATRVENRLAGADANPYLVMAASLACGYLGMLGQLEPRPPMVGSAWSGGHKLPDDIRPALDMLSECQPLAEILGERFTNSYLAVKRAEHREYFQVISSWEREHLLLRV", "soluble on expression in E. coli": "not soluble"}
{"sequence": "MGSDKIHHHHHHMSNTVRAISPDITLFNKTLTFQEISQNTREAVIYIHGGAWNDPENTPNDFNQLANTIKSMDTESTVCQYSIEYRLSPEITNPRNLYDAVSNITRLVKEKGLTNINMVGHSVGATFIWQILAALKDPQEKMSEAQLQMLGLLQIVKRVFLLDGIYSLKELLIEYPEYDCFTRLAFPDGIQMYEEEPSRVMPYVKKALSRFSIDMHLVHSYSDELLTLRQTNCLISCLQDYQLSFKLYLDDLGLHNDVYKNGKVAKYIFDNIC", "soluble on expression in E. coli": "soluble"}
{"sequence": "MGSDKIHHHHHHMSNVDHAEIAKFEALAHRWWDRESEFKPLHDINPLRVNWIDERAGLAGKKVLDIGCGGGILSEAMAQRGASVTGIDMGEAPLAVARLHQLESGVAVDYRQITAEQMAEEMPGQFDVVTCLEMLEHVPDPASVIRACHRLVKPGGQVFLSTINRNPKAYLFAVIGAEYILQLLPRGTHDFRKFIRPSELGAWSREAGLEVKDIIGLTYNPLTKHYKLANDVDVNYMVQTKREA", "soluble on expression in E. coli": "not soluble"}
